Test results reported in patent publication US9029508 (dated 2015).

Molecular target: DLL4 (human, UniProt Q9NR61)
Test: ELISA

Sequence of DLL4 (Q9NR61 27-524): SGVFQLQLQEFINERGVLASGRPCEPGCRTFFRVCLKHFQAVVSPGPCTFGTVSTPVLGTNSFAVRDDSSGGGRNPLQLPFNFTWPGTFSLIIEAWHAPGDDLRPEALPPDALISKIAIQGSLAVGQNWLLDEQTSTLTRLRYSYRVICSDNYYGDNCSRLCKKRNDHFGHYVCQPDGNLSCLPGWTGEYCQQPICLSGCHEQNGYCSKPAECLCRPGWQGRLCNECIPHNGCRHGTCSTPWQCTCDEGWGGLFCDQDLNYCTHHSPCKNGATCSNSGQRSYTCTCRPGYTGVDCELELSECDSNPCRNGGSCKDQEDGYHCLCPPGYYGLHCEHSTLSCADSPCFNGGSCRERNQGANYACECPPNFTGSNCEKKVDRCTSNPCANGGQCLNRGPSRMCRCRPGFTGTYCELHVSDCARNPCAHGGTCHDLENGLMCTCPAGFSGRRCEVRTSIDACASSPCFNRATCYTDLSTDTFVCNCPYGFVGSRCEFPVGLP

Binder | EC50 [nM]
DVD486 DLL4 arm (antibody, DVD-Ig inner) chain 1: EVQLVESGGGLVQPGGSLRLSCAASGFTFTDNWISWVRQAPGKGLEWVGYISPNSGFTYYADSVKGRFTISADTSKNTAYLQMNSLRAEDTAVYYCARDNFGGYFDYWGQGTLVTVSS chain 2: DIQMTQSPSSLSASVGDRVTITCRASQDVSTAVAWYQQKPGKAPKLLIYSASFLYSGVPSRFSGSGSGTDFTLTISSLQPEDFATTYYCQQSYTGTVTFGQGTKVEIKR | 0.59
DVD485 DLL4 arm (antibody, DVD-Ig outer) chain 1: EVQLVESGGGLVQPGGSLRLSCAASGFTFTDNWISWVRQAPGKGLEWVGYISPNSGFTYYADSVKGRFTISADTSKNTAYLQMNSLRAEDTAVYYCARDNFGGYFDYWGQGTLVTVSS chain 2: DIQMTQSPSSLSASVGDRVTITCRASQDVSTAVAWYQQKPGKAPKLLIYSASFLYSGVPSRFSGSGSGTDFTLTISSLQPEDFATTYYCQQSYTGTVTFGQGTKVEIKR | 1.41
DVD467 DLL4 arm (antibody, DVD-Ig outer) chain 1: EVQLVESGGGLVQPGGSLRLSCAASGFTFTDNWISWVRQAPGKGLEWVGYISPNSGFTYYADSVKGRFTISADTSKNTAYLQMNSLRAEDTAVYYCARDNFGGYFDYWGQGTLVTVSS chain 2: DIQMTQSPSSLSASVGDRVTITCRASQDVSTAVAWYQQKPGKAPKLLIYSASFLYSGVPSRFSGSGSGTDFTLTISSLQPEDFATTYYCQQSYTGTVTFGQGTKVEIKR | 0.54
DVD470 DLL4 arm (antibody, DVD-Ig inner) chain 1: EVQLVESGGGLVQPGGSLRLSCAASGFTFTDNWISWVRQAPGKGLEWVGYISPNSGFTYYADSVKGRFTISADTSKNTAYLQMNSLRAEDTAVYYCARDNFGGYFDYWGQGTLVTVSS chain 2: DIQMTQSPSSLSASVGDRVTITCRASQDVSTAVAWYQQKPGKAPKLLIYSASFLYSGVPSRFSGSGSGTDFTLTISSLQPEDFATTYYCQQSYTGTVTFGQGTKVEIKR | 0.19
DVD477 DLL4 arm (antibody, DVD-Ig outer) chain 1: EVQLVESGGGLVQPGGSLRLSCAASGFTFTDNWISWVRQAPGKGLEWVGYISPNSGFTYYADSVKGRFTISADTSKNTAYLQMNSLRAEDTAVYYCARDNFGGYFDYWGQGTLVTVSS chain 2: DIQMTQSPSSLSASVGDRVTITCRASQDVSTAVAWYQQKPGKAPKLLIYSASFLYSGVPSRFSGSGSGTDFTLTISSLQPEDFATTYYCQQSYTGTVTFGQGTKVEIKR | 0.69
DVD468 DLL4 arm (antibody, DVD-Ig inner) chain 1: EVQLVESGGGLVQPGGSLRLSCAASGFTFTDNWISWVRQAPGKGLEWVGYISPNSGFTYYADSVKGRFTISADTSKNTAYLQMNSLRAEDTAVYYCARDNFGGYFDYWGQGTLVTVSS chain 2: DIQMTQSPSSLSASVGDRVTITCRASQDVSTAVAWYQQKPGKAPKLLIYSASFLYSGVPSRFSGSGSGTDFTLTISSLQPEDFATTYYCQQSYTGTVTFGQGTKVEIKR | 2.28
DVD484 DLL4 arm (antibody, DVD-Ig inner) chain 1: EVQLVESGGGLVQPGGSLRLSCAASGFTFTDNWISWVRQAPGKGLEWVGYISPNSGFTYYADSVKGRFTISADTSKNTAYLQMNSLRAEDTAVYYCARDNFGGYFDYWGQGTLVTVSS chain 2: DIQMTQSPSSLSASVGDRVTITCRASQDVSTAVAWYQQKPGKAPKLLIYSASFLYSGVPSRFSGSGSGTDFTLTISSLQPEDFATTYYCQQSYTGTVTFGQGTKVEIKR | 1.75
DVD458 DLL4 arm (antibody, V domains shown, DVD-Ig inner) VH: QVQLVQSGAEVKKPGASVKISCKASGYSFTAYYIHWVKQAPGQGLEWIGYISSYNGATNYNQKFKGRVTFTTDTSTSTAYMELRSLRSDDTAVYYCARDYDYDVGMDYWGQGTLVTVSS VL: DIVMTQSPDSLAVSLGERATISCRASESVDNYGISFMKWFQQKPGQPPKLLIYAASNQGSGVPDRFSGSGSGTDFTLTISSLQAEDVAVYYCQQSKEVPWTFGGGTKVEIKR | 1.54
DVD464 DLL4 arm (antibody, V domains shown, DVD-Ig inner) VH: QVQLVQSGAEVKKPGASVKISCKASGYSFTAYYIHWVKQAPGQGLEWIGYISSYNGATNYNQKFKGRVTFTTDTSTSTAYMELRSLRSDDTAVYYCARDYDYDVGMDYWGQGTLVTVSS VL: DIVMTQSPDSLAVSLGERATISCRASESVDNYGISFMKWFQQKPGQPPKLLIYAASNQGSGVPDRFSGSGSGTDFTLTISSLQAEDVAVYYCQQSKEVPWTFGGGTKVEIKR | 0.8
DVD460 DLL4 arm (antibody, V domains shown, DVD-Ig inner) VH: QVQLVQSGAEVKKPGASVKISCKASGYSFTAYYIHWVKQAPGQGLEWIGYISSYNGATNYNQKFKGRVTFTTDTSTSTAYMELRSLRSDDTAVYYCARDYDYDVGMDYWGQGTLVTVSS VL: DIVMTQSPDSLAVSLGERATISCRASESVDNYGISFMKWFQQKPGQPPKLLIYAASNQGSGVPDRFSGSGSGTDFTLTISSLQAEDVAVYYCQQSKEVPWTFGGGTKVEIKR | 0.64
DVD445 DLL4 arm (antibody, V domains shown, DVD-Ig outer) VH: QVQLVQSGAEVKKPGASVKISCKASGYSFTAYYIHWVKQAPGQGLEWIGYISSYNGATNYNQKFKGRVTFTTDTSTSTAYMELRSLRSDDTAVYYCARDYDYDVGMDYWGQGTLVTVSS VL: DIVMTQSPDSLAVSLGERATISCRASESVDNYGISFMKWFQQKPGQPPKLLIYAASNQGSGVPDRFSGSGSGTDFTLTISSLQAEDVAVYYCQQSKEVPWTFGGGTKVEIKR | 0.17
DVD461 DLL4 arm (antibody, V domains shown, DVD-Ig outer) VH: QVQLVQSGAEVKKPGASVKISCKASGYSFTAYYIHWVKQAPGQGLEWIGYISSYNGATNYNQKFKGRVTFTTDTSTSTAYMELRSLRSDDTAVYYCARDYDYDVGMDYWGQGTLVTVSS VL: DIVMTQSPDSLAVSLGERATISCRASESVDNYGISFMKWFQQKPGQPPKLLIYAASNQGSGVPDRFSGSGSGTDFTLTISSLQAEDVAVYYCQQSKEVPWTFGGGTKVEIKR | 0.52
DVD452 DLL4 arm (antibody, V domains shown, DVD-Ig inner) VH: QVQLVQSGAEVKKPGASVKISCKASGYSFTAYYIHWVKQAPGQGLEWIGYISSYNGATNYNQKFKGRVTFTTDTSTSTAYMELRSLRSDDTAVYYCARDYDYDVGMDYWGQGTLVTVSS VL: DIVMTQSPDSLAVSLGERATISCRASESVDNYGISFMKWFQQKPGQPPKLLIYAASNQGSGVPDRFSGSGSGTDFTLTISSLQAEDVAVYYCQQSKEVPWTFGGGTKVEIKR | 0.34
DVD489 DLL4 arm (antibody, V domains shown, DVD-Ig outer) VH: EVQLQQSGPELVKPGASVKMSCKASGYTFTSYVINWVKQKPGQGLEWIGLINPYNDGTKYNEKFKVKATLTSDKSSSTAYMELSSLTSEDSAVYYCASYYYGSRYYFDYWGQGTTLTVSS VL: DIQMTQSSSYLSVSLGGRVTITCKASDHINNWLAWYQQKPGNAPRLLISGATSLETGVPSRFSGSGSGKDYTLSITSLQTEDVATYYCQQYWSIPLTFGAGTKLELKR | 0.62
DVD487 DLL4 arm (antibody, V domains shown, DVD-Ig outer) VH: EVQLQQSGPELVKPGASVKMSCKASGYTFTSYVINWVKQKPGQGLEWIGLINPYNDGTKYNEKFKVKATLTSDKSSSTAYMELSSLTSEDSAVYYCASYYYGSRYYFDYWGQGTTLTVSS VL: DIQMTQSSSYLSVSLGGRVTITCKASDHINNWLAWYQQKPGNAPRLLISGATSLETGVPSRFSGSGSGKDYTLSITSLQTEDVATYYCQQYWSIPLTFGAGTKLELKR | 0.14

Now from value to binder:

EC50 [nM] | Binder
1.53 | DVD519 DLL4 arm (antibody, V domains shown, DVD-Ig outer) VH: EVQLQQSGPELEKPGASVKISCKASGYSFTGYNMNWVKQSNGKSLEWIGNIDPYFGGTNYNQKFKGKATLTVDKSSSTAYMQLKSLTSEDSAVYYCARNYDYDGGCFDYWGQGTTLTVSS VL: QAVVTQESALTTSPGETVTLTCRSSTGAVTTSNYANWVQEKPDHLFTGLIGGTNNRAPGVPARFSGSLIGDKAALTITGAQTEDEAIYFCALWYSNHWVFGGGTKLTVLG
0.2 | DVD515 DLL4 arm (antibody, V domains shown, DVD-Ig outer) VH: EVQLQQSGPELEKPGASVKISCKASGYSFTGYNMNWVKQSNGKSLEWIGNIDPYFGGTNYNQKFKGKATLTVDKSSSTAYMQLKSLTSEDSAVYYCARNYDYDGGCFDYWGQGTTLTVSS VL: QAVVTQESALTTSPGETVTLTCRSSTGAVTTSNYANWVQEKPDHLFTGLIGGTNNRAPGVPARFSGSLIGDKAALTITGAQTEDEAIYFCALWYSNHWVFGGGTKLTVLG
0.26 | DVD521 DLL4 arm (antibody, V domains shown, DVD-Ig outer) VH: EVQLQQSGPELEKPGASVKISCKASGYSFTGYNMNWVKQSNGKSLEWIGNIDPYFGGTNYNQKFKGKATLTVDKSSSTAYMQLKSLTSEDSAVYYCARNYDYDGGCFDYWGQGTTLTVSS VL: QAVVTQESALTTSPGETVTLTCRSSTGAVTTSNYANWVQEKPDHLFTGLIGGTNNRAPGVPARFSGSLIGDKAALTITGAQTEDEAIYFCALWYSNHWVFGGGTKLTVLG
1.71 | DVD512 DLL4 arm (antibody, V domains shown, DVD-Ig inner) VH: EVQLQQSGPELEKPGASVKISCKASGYSFTGYNMNWVKQSNGKSLEWIGNIDPYFGGTNYNQKFKGKATLTVDKSSSTAYMQLKSLTSEDSAVYYCARNYDYDGGCFDYWGQGTTLTVSS VL: QAVVTQESALTTSPGETVTLTCRSSTGAVTTSNYANWVQEKPDHLFTGLIGGTNNRAPGVPARFSGSLIGDKAALTITGAQTEDEAIYFCALWYSNHWVFGGGTKLTVLG
0.1 | DVD529 DLL4 arm (antibody, V domains shown, DVD-Ig outer) VH: EVQLQQSGPELEKPGASVKISCKASGYSFTGYNMNWVKQSNGKSLEWIGNIDPYFGGTNYNQKFKGKATLTVDKSSSTAYMQLKSLTSEDSAVYYCARNYDYDGGCFDYWGQGTTLTVSS VL: QAVVTQESALTTSPGETVTLTCRSSTGAVTTSNYANWVQEKPDHLFTGLIGGTNNRAPGVPARFSGSLIGDKAALTITGAQTEDEAIYFCALWYSNHWVFGGGTKLTVLG
0.53 | DVD497 DLL4 arm (antibody, V domains shown, DVD-Ig outer) VH: EVQLQQSGPELVKPGASVKMSCKASGYTFTSYVINWVKQKPGQGLEWIGLINPYNDGTKYNEKFKVKATLTSDKSSSTAYMELSSLTSEDSAVYYCASYYYGSRYYFDYWGQGTTLTVSS VL: DIQMTQSSSYLSVSLGGRVTITCKASDHINNWLAWYQQKPGNAPRLLISGATSLETGVPSRFSGSGSGKDYTLSITSLQTEDVATYYCQQYWSIPLTFGAGTKLELKR
0.21 | DVD509 DLL4 arm (antibody, V domains shown, DVD-Ig outer) VH: EVQLQQSGPELVKPGASVKMSCKASGYTFTSYVINWVKQKPGQGLEWIGLINPYNDGTKYNEKFKVKATLTSDKSSSTAYMELSSLTSEDSAVYYCASYYYGSRYYFDYWGQGTTLTVSS VL: DIQMTQSSSYLSVSLGGRVTITCKASDHINNWLAWYQQKPGNAPRLLISGATSLETGVPSRFSGSGSGKDYTLSITSLQTEDVATYYCQQYWSIPLTFGAGTKLELKR
